Laboratory results published in US20230295301A1 (SHANGHAI JUNSHI BIOSCIENCES, published 2023).

How the values were obtained:
huCTLA-4 ECD (his-tag) [1] = target: T1, huCTLA-4 ECD (his-tag) (human, UniProt P16410 37-162); assay: ELISA, coated huCTLA-4 his
T1 construct: also called HX1 hCTLA4 his; HX1 huCTLA4 his; not shown: his-tag
T1 sequence: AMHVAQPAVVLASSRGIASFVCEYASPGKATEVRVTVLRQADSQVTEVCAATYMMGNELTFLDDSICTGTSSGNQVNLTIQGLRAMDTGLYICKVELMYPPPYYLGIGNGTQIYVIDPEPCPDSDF
Method in brief: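 Plates coated with his-tagged human CTLA-4 at 1.0 μg/mL for 90 min at 37° C, then blocked with 2% BSA. Antibodies serially diluted 2.5-fold from 1000 ng/mL and bound 60 min at 37° C. Detection by HRP anti-human IgG Fc and TMB (15 min), acid stop, absorbance at 450/620 nm.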

[2] = target: T2, huCTLA-4 expressed on cells (human, UniProt P16410 36-223); assay: FACS on huCTLA-4-expressing CHO cells
T2 construct: the construct in the cells is not described; also called HuCTLA-4-expressing CHO cells; huCTLA-4-expressing Jurkat effector cells
T2 sequence: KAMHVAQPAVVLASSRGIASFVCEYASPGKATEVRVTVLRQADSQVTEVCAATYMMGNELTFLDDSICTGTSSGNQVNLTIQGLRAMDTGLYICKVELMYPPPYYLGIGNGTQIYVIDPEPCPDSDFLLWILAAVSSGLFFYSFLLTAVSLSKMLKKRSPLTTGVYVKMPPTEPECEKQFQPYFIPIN
Procedure: 6.2 FACS Detection of Binding of Chimeric Antibodies to huCTLA-4-Expressing Cells HuCTLA-4-expressing cells (constructed in-house by Junmeng; CHO from ATCC) were co-incubated with each of the chimeric antibodies in Table 3 and the control antibody (ipilimumab) (serially diluted 3-fold from an initial concentration of 10 μg/mL) at room temperature for 30 min, and then a fluorescent secondary antibody (PE-anti human IgG) was added to detect the binding of the chimeric antibodies to the huCTLA-4-expressing cells.

huCTLA-4 ECD (his-tag) [3] = target: T1, huCTLA-4 ECD (his-tag); assay: competition ELISA, coated huCTLA-4 his, competitor hCD80 Fc
Procedure: HX1 huCTLA4 his was diluted with PBS (Hyclone) to 1.0 μg/mL, and the dilution was added to a microplate at 100 μL/well. The plate was let stand in an incubator at 37° C. and incubated for 90 min and then washed, and 2% BSA was added to the plate at 200 μL/well. The plate was incubated in an incubator at 37° C. for 90 min and then washed. MX2 hCD80 Fc was diluted with 2% BSA to 5.0 μg/mL, and the dilution was used to dilute samples. The chimeric antibodies and the control antibody ipilimumab were diluted to 100 μg/mL. The dilution performed each time was not higher than 10-fold. Then, the chimeric antibodies and the control antibody were serially diluted 2.5-fold on a sample dilution plate. All the chimeric antibody solutions and the control antibody solution were added to a microplate at 100 μL/well. The plate was incubated in an incubator at 37° C. for 90 min and then washed. An HRP-conjugated goat anti-mouse antibody IgG (Fc specific) (Sigma, Catalog No. A2554) was diluted 5000-fold with 2% BSA, and the dilution was added to the microplate at 100 μL/well. The plate was incubated in an incubator at 37° C. for 60 min and then washed. The color development solution TMB was added at 100 μL/well, during which bubbles were avoided. Color development was allowed at 37° C. for 15 min in the dark and then terminated by adding 2 M hydrochloric acid solution at 100 μL/well, during which bubbles were avoided. Reading (wavelength: 450/620 nm) was done within 10 min using a microplate reader.

huCTLA-4 [4] = target: T3, huCTLA-4 (human, UniProt P16410 36-161); assay: FACS blocking, huCTLA4 recombinant protein on CD80-expressing CHO cells; CD80-expressing CHO cells
T3 construct: also called human CTLA (huCTLA) antigen; huCTLA4 recombinant protein
T3 sequence: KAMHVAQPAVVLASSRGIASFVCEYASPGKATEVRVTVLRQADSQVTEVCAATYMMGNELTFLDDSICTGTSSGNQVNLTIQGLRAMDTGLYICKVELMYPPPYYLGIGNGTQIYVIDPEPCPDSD
Procedure: (§1) The chimeric antibodies in Table 3 and the control antibody ipilimumab (serially diluted 3-fold from an initial concentration of 30 μg/mL) were each added to CD80- or CD86-expressing CHO cells (constructed in-house by Junmeng) together with a certain concentration of huCTLA4 recombinant protein. After they were co-incubated at room temperature for 30 min, a fluorescent secondary antibody (PE-anti human IgG4) (Southern biotech) was added to determine the abilities of the chimeric antibodies to block the binding of huCTLA-4 to the CD80/CD86-expressing cells.

huCTLA-4 [5] = target: T3, huCTLA-4; assay: FACS blocking, huCTLA4 recombinant protein on CD86-expressing CHO cells; CD86-expressing CHO cells
Procedure: as §1

B1: HuJS007-81 (antibody, V domains shown)
VH: QVQLQESGPGLVKPSQTLSLTCAVSGYSISSGYYWNWIRQPPGKGLEWIGYIGYDGSNYYNPSLKSRVTMSVDTSKNQFSLKLSSVTAVDTAVYYCARNYYSGYFDSWGQGTTVTVSS
VL: EIVMTQSPATLSVSPGERATLSCKASQNVGTYVAWYQQKPGQAPRPLIYSTSYRYSGIPARFSGSGSGTEFTLTISSLQSEDFAVYFCHQYDTYPLTFGQGTKLEIK
notes: 1A5 VH5 + 4B7VL9; constant regions not specified
binding result (huCTLA-4 ECD (his-tag) [1]): binds

B2: huJS007-79 (antibody, human IgG1, kappa, V domains shown)
VH: QVQLQESGPGLVKPSQTLSLTCAVSGYSISSGYYWNWIRQPPGKGLEWIGYIGYDGSNYYNPSLKSRVTMSVDTSKNQFSLKLSSVTAVDTAVYYCARNYYSGYFDSWGQGTTVTVSS
VL: EIVMTQSPATLSVSPGERATLSCRASQNVGTYVAWYQQKPGQAPRPLIYSTSYRYSGIPARFSGSGSGTEFTLTISSLQSEDFAVYYCHQYDTYPLTFGQGTKLEIKR
binding result (huCTLA-4 ECD (his-tag) [1]): binds

B3: HuJS007-83 (antibody, V domains shown)
VH: QVQLQESGPGLVKPSQTLSLTCAVSGYSISSGYYWNWIRQFPGKGLEWMGYIGYDGSNYYNPSLKNRVTMSVDTSKNQFSLKLSSVTAVDTAVYYCARNYYSGYFDSWGQGTTVTVSS
VL: DIQMTQSPSSLSASVGDRVTITCRASQNVGTYVAWYQQKPGKVPKPLIYSTSYRYSGVPSRFSGSGSGTDFTLTISSLQPEDVATYFCHQYDTYPLTFGAGTKLELK
notes: 1A5 VH6 + 4B7VL2; constant regions not specified
binding result (huCTLA-4 ECD (his-tag) [1]): binds

B4: HuJS007-86 (antibody, V domains shown)
VH: QVQLQESGPGLVKPSQTLSLTCAVSGYSISSGYYWNWIRQFPGKGLEWMGYIGYDGSNYYNPSLKNRVTMSVDTSKNQFSLKLSSVTAVDTAVYYCARNYYSGYFDSWGQGTTVTVSS
VL: DIQMTQSPSSLSASVGDRVTITCQASQNVGTYVAWYQQKPGKAPKPLIYSTSYRYSGVPSRFSGSGSGTDFTFTISSLQPEDIATYFCHQYDTYPLTFGAGTKLELK
notes: 1A5 VH6 + 4B7VL5; constant regions not specified
binding result (huCTLA-4 ECD (his-tag) [1]): binds

B5: HuJS007-85 (antibody, V domains shown)
VH: QVQLQESGPGLVKPSQTLSLTCAVSGYSISSGYYWNWIRQFPGKGLEWMGYIGYDGSNYYNPSLKNRVTMSVDTSKNQFSLKLSSVTAVDTAVYYCARNYYSGYFDSWGQGTTVTVSS
VL: DIQMTQSPSFLSASVGDRVTITCRASQNVGTYVAWYQQKPGKAPKPLIYSTSYRYSGVPSRFSGSGSGTEFTLTISSLQPEDFATYFCHQYDTYPLTFGAGTKLELK
notes: 1A5 VH6 + 4B7VL4; constant regions not specified
binding result (huCTLA-4 ECD (his-tag) [1]): binds

B6: HuJS007-88 (antibody, V domains shown)
VH: QVQLQESGPGLVKPSQTLSLTCAVSGYSISSGYYWNWIRQFPGKGLEWMGYIGYDGSNYYNPSLKNRVTMSVDTSKNQFSLKLSSVTAVDTAVYYCARNYYSGYFDSWGQGTTVTVSS
VL: EIVMTQSPATLSVSPGERATLSCRASQNVGTYVAWYQQKPGQAPRPLIYSTSYRYSGIPARFSGSGSGTEFTLTISSLQSEDFAVYYCHQYDTYPLTFGQGTKLEIK
notes: 1A5 VH6 + 4B7VL7; constant regions not specified
binding result (huCTLA-4 ECD (his-tag) [1]): binds

B7: HuJS007-87 (antibody, V domains shown)
VH: QVQLQESGPGLVKPSQTLSLTCAVSGYSISSGYYWNWIRQFPGKGLEWMGYIGYDGSNYYNPSLKNRVTMSVDTSKNQFSLKLSSVTAVDTAVYYCARNYYSGYFDSWGQGTTVTVSS
VL: DIVMTQSPDSLAVSLGERATINCKASQNVGTYVAWYQQKPGQPPKLLIYSTSYRYSGVPDRFSGSGSGTDFTLTISSLQAEDVAVYYCHQYDTYPLTFGQGTKLEIK
notes: 1A5 VH6 + 4B7VL6; constant regions not specified
binding result (huCTLA-4 ECD (his-tag) [1]): binds

B8: HuJS007-82 (antibody, V domains shown)
VH: QVQLQESGPGLVKPSQTLSLTCAVSGYSISSGYYWNWIRQFPGKGLEWMGYIGYDGSNYYNPSLKNRVTMSVDTSKNQFSLKLSSVTAVDTAVYYCARNYYSGYFDSWGQGTTVTVSS
VL: DIVMTQSPDSLAVSLGERATINCKASQNVGTYVAWYQQKPGQPPKPLIYSTSYRYSGVPDRFSGSGSGTDFTLTISSLQAEDVAVYFCHQYDTYPLTFGAGTKLELK
notes: 1A5 VH6 + 4B7VL1; constant regions not specified
binding result (huCTLA-4 ECD (his-tag) [1]): binds

B9: huJS007-106 (antibody, human IgG1, kappa, V domains shown)
VH: QVQLQESGPGLVKPSQTLSLTCAVSGYSITSGYYWNWIRQPPGKGLEWIGYIGYDGSNNYNPSLKNRVTMSVDTSKNQFSLKLSSVTAVDTAVYYCARDYYSGYFDSWGQGTTVTVSS
VL: EIVMTQSPATLSVSPGERATLSCRASQNVGTYVAWYQQKPGQAPRPLIYSTSYRYSGIPARFSGSGSGTEFTLTISSLQSEDFAVYYCHQYDTYPLTFGQGTKLEIKR
binding result (huCTLA-4 ECD (his-tag) [1]): binds

B10: HuJS007-108 (antibody, V domains shown)
VH: QVQLQESGPGLVKPSQTLSLTCAVSGYSITSGYYWNWIRQPPGKGLEWIGYIGYDGSNNYNPSLKNRVTMSVDTSKNQFSLKLSSVTAVDTAVYYCARDYYSGYFDSWGQGTTVTVSS
VL: EIVMTQSPATLSVSPGERATLSCKASQNVGTYVAWYQQKPGQAPRPLIYSTSYRYSGIPARFSGSGSGTEFTLTISSLQSEDFAVYFCHQYDTYPLTFGQGTKLEIK
notes: 4B7 VH2-5 + 4B7VL9; constant regions not specified
binding result (huCTLA-4 ECD (his-tag) [1]): binds

B11: HuJS007-90 (antibody, V domains shown)
VH: QVQLQESGPGLVKPSQTLSLTCAVSGYSISSGYYWNWIRQFPGKGLEWMGYIGYDGSNYYNPSLKNRVTMSVDTSKNQFSLKLSSVTAVDTAVYYCARNYYSGYFDSWGQGTTVTVSS
VL: EIVMTQSPATLSVSPGERATLSCKASQNVGTYVAWYQQKPGQAPRPLIYSTSYRYSGIPARFSGSGSGTEFTLTISSLQSEDFAVYFCHQYDTYPLTFGQGTKLEIK
notes: 1A5 VH6 + 4B7VL9; constant regions not specified
binding result (huCTLA-4 ECD (his-tag) [1]): binds

B12: JS007-3 (antibody, V domains shown)
VH: DVQLQESGQGLVKPSQSLSLTCSVTGYSITSGYYWNWIRQFPGNKLEWLGYIGYDGSNYYNPSLKNRISITRDTSKNQFFLKLNSVTSEDTATYFCARNYYSGYFDFWGQGTTLTVSS
VL: DIVMTQSQKFMSTSVGDSVSVTCKASQNVGTYVAWYQQKPGQSPKPLIYSTSYRYSGVPDRFTGSGSGTDFTLTISNVQSEDLAEYFCHQYDTYPLTFGAGTKLELK
notes: also called JS007-3 chimeric antibody
EC50 (huCTLA-4 ECD (his-tag) [1]): 17.2 ng/mL | EC50 [2]: 249 ng/mL | IC50 (huCTLA-4 ECD (his-tag) [3]): 190 ng/mL | IC50 (huCTLA-4 [4]): 0.699 ng/mL | IC50 (huCTLA-4 [5]): 0.196 ng/mL

B13: JS007-15 (antibody, V domains shown)
VH: DVQLQESGPGLVKPSQSLSLTCSVTAYSITSGYYWNWIRQFPGNKLEWMGYIGYDGSNNYNPSLKNRISITRDTSKNQFFLKLNSVTTEDTATYYCARDYYSGYFDSWGQGTTLTVSS
VL: DIVMTQSQKFMSTSVGDSVSVTCKASQNVGTYVAWYQQKPGQSPKPLIYSTSYRYSGVPDRFTGSGSGTDFTLTISNVQSEDLAEYFCHQYDTYPLTFGAGTKLELK
notes: also called JS007-15 chimeric antibody
EC50 (huCTLA-4 ECD (his-tag) [1]): 19.7 ng/mL | EC50 [2]: 189 ng/mL | IC50 (huCTLA-4 ECD (his-tag) [3]): 190 ng/mL | IC50 (huCTLA-4 [4]): 0.398 ng/mL | IC50 (huCTLA-4 [5]): 0.0816 ng/mL

B14: JS007-20 (antibody, V domains shown)
VH: EVQLQQSGPELVKPGASVKMSCKASGYTFTDYYMKWMKQSHGKSLEWIGHINPNNGDTFYNQKFTGKATLTVDKSSSTASMHLNSLTSEDSAVYYCARGGDGRGTWFAYWGQGTLVTVSS
VL: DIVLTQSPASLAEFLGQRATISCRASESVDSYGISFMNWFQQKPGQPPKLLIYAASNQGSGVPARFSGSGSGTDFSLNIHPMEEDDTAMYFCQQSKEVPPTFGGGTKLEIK
notes: also called JS007-20 chimeric antibody
EC50 (huCTLA-4 ECD (his-tag) [1]): 12.9 ng/mL | EC50 [2]: 486 ng/mL | IC50 (huCTLA-4 ECD (his-tag) [3]): 187 ng/mL | IC50 (huCTLA-4 [4]): 1.21 ng/mL | IC50 (huCTLA-4 [5]): 0.253 ng/mL
